Source: patent US20250320304A1 (Janssen / Centocor, published 2025)

Key:
[1] = target: CD3 on human donor Pan T cells (human); assay: cell-based or functional assay
[2] = target: T1, BCMA on H929-Fluc-GFP cells (UniProt Q02223 1-184); assay: cell-based or functional assay
T1 sequence (looked up): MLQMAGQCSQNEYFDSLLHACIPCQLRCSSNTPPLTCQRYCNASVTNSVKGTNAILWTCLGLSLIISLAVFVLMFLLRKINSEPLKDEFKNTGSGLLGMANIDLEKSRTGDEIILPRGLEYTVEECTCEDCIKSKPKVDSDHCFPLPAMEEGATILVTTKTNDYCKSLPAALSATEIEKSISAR

CD3W220.001 = assay: SPR, CD3 antigen CD3W220.001
BCMA (BCMW37.DB.001) = target: T2, BCMA (BCMW37.DB.001) (UniProt Q02223 1-54, limits assumed); assay: SPR, BCMA antigen BCMW37.DB.001
T2 construct: The SPR antigen itself is named only by its batch label
T2 sequence (looked up): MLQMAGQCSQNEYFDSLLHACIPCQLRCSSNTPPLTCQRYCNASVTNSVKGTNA

CD3 on human donor Pan T cells (human), sequence (chain, as listed by the source): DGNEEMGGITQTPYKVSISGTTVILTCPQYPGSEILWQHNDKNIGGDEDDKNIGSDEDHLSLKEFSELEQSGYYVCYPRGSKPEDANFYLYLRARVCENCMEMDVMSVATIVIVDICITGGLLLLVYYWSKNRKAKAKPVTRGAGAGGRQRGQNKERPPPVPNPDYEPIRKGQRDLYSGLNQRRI
BCMB1056, sequence (chain): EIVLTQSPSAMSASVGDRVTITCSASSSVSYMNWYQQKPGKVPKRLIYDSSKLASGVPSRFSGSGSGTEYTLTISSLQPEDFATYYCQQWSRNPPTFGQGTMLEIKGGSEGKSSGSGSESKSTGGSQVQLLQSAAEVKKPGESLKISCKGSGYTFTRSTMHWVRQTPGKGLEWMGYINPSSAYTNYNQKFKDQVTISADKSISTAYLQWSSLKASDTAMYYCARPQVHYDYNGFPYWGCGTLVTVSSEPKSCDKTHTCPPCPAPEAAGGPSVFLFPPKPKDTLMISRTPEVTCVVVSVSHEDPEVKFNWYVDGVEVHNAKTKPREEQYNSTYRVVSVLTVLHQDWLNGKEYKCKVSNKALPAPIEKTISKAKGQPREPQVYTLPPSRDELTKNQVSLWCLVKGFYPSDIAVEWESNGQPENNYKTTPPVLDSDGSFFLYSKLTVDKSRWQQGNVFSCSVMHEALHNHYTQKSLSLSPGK
BCMB1049, sequence (chain): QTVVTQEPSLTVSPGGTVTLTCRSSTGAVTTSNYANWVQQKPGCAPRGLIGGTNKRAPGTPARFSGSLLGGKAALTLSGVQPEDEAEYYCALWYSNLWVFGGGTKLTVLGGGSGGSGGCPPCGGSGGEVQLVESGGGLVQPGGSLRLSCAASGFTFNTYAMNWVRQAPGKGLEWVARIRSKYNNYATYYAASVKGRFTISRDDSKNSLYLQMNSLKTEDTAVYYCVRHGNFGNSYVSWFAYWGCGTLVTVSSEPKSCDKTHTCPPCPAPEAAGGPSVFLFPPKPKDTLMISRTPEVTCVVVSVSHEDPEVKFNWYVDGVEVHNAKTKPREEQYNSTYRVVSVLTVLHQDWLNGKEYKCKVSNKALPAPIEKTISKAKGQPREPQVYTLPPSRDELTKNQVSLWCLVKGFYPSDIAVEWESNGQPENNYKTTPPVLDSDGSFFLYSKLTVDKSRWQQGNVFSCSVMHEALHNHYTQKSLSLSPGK
BCMB1052, sequence (chain): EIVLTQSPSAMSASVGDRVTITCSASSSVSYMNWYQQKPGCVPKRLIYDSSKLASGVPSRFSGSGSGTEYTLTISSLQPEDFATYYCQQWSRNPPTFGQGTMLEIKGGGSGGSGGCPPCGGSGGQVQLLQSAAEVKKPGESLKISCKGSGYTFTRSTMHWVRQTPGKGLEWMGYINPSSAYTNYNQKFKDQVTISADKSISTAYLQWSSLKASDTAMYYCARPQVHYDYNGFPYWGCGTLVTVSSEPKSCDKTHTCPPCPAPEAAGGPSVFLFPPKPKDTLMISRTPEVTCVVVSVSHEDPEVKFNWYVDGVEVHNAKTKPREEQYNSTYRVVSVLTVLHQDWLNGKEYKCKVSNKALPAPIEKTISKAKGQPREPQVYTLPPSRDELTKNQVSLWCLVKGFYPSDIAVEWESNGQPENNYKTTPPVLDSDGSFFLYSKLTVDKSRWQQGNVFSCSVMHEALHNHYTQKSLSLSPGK

Binder | Bottom of fit, CD4/CD25+ T cell activation [1] | Bottom of fit, CD8/CD25+ T cell activation [1] | EC50 (nM), CD4/CD25+ T cell activation [1] [nM] | EC50 (nM), CD8/CD25+ T cell activation [1] [nM] | Top of fit (Cmax), CD4/CD25+ T cell activation [1] | Top of fit (Cmax), CD8/CD25+ T cell activation [1] | Bottom of fit, % Cytolysis [2] [%] | EC50 (nM), % Cytolysis [2] [nM] | Top of fit (Cmax), % Cytolysis [2] [%] | Kd (CD3W220.001) [nM] | koff (CD3W220.001) [s⁻¹] | kon (CD3W220.001) [M⁻¹ s⁻¹] | Kd (BCMA (BCMW37.DB.001)) [nM] | koff (BCMA (BCMW37.DB.001)) [s⁻¹] | kon (BCMA (BCMW37.DB.001)) [M⁻¹ s⁻¹]
BCMB1055 (bispecific antibody, human IgG1, kappa, L234A L235A, Humanized anti-BCMA Fab × anti-CD3 scFv-Fc, knob-in-hole Fc; also called BCMB1055.001; BCMB749h × Cris7b scFv) light: DIQMTQSPSSVSASVGDRVTITCKASQNVGTAVAWYQQKPGQSPKLLIYSASNRYTGVPSRFSGSGSGTDFTLTISSLQPEDFATYFCQQYGSSPWTFGGGTKVEIKRTVAAPSVFIFPPSDEQLKSGTASVVCLLNNFYPREAKVQWKVDNALQSGNSQESVTEQDSKDSTYSLSSTLTLSKADYEKHKVYACEVTHQGLSSPVTKSFNRGEC heavy: QVQLVQSGAEVKKPGASVKVSCKASGYTFTNNVMHWVRQAPGQGLEWMGYILPYNDGTKYNQKFQGRVTLTSDKSASTAYMELSSLRSEDTAVYYCARYDYDGYFDYWGQGTTVTVSSASTKGPSVFPLAPSSKSTSGGTAALGCLVKDYFPEPVTVSWNSGALTSGVHTFPAVLQSSGLYSLSSVVTVPSSSLGTQTYICNVNHKPSNTKVDKKVEPKSCDKTHTCPPCPAPEAAGGPSVFLFPPKPKDTLMISRTPEVTCVVVSVSHEDPEVKFNWYVDGVEVHNAKTKPREEQYNSTYRVVSVLTVLHQDWLNGKEYKCKVSNKALPAPIEKTISKAKGQPREPQVYTLPPSREEMTKNQVSLSCAVKGFYPSDIAVEWESNGQPENNYKTTPPVLDSDGSFFLVSKLTVDKSRWQQGNVFSCSVMHEALHNRFTQKSLSLSPGK not shown | 7.46 | 0.97 | 0.0447 | 0.0859 | 87.4 | 81.2 | 16.1 | 0.0301 | 93.2 | 746 | 0.199 | 267000 | 1.77 | 0.0223 | 1.26e+07
BCMB1050 (bispecific antibody, human IgG1, kappa, L234A L235A, Humanized anti-BCMA Fab × stapled anti-CD3 scFv-Fc, knob-in-hole Fc; also called BCMB1050.001; BCMB749h × Cris7b spFv) light: DIQMTQSPSSVSASVGDRVTITCKASQNVGTAVAWYQQKPGQSPKLLIYSASNRYTGVPSRFSGSGSGTDFTLTISSLQPEDFATYFCQQYGSSPWTFGGGTKVEIKRTVAAPSVFIFPPSDEQLKSGTASVVCLLNNFYPREAKVQWKVDNALQSGNSQESVTEQDSKDSTYSLSSTLTLSKADYEKHKVYACEVTHQGLSSPVTKSFNRGEC heavy: QVQLVQSGAEVKKPGASVKVSCKASGYTFTNNVMHWVRQAPGQGLEWMGYILPYNDGTKYNQKFQGRVTLTSDKSASTAYMELSSLRSEDTAVYYCARYDYDGYFDYWGQGTTVTVSSASTKGPSVFPLAPSSKSTSGGTAALGCLVKDYFPEPVTVSWNSGALTSGVHTFPAVLQSSGLYSLSSVVTVPSSSLGTQTYICNVNHKPSNTKVDKKVEPKSCDKTHTCPPCPAPEAAGGPSVFLFPPKPKDTLMISRTPEVTCVVVSVSHEDPEVKFNWYVDGVEVHNAKTKPREEQYNSTYRVVSVLTVLHQDWLNGKEYKCKVSNKALPAPIEKTISKAKGQPREPQVYTLPPSREEMTKNQVSLSCAVKGFYPSDIAVEWESNGQPENNYKTTPPVLDSDGSFFLVSKLTVDKSRWQQGNVFSCSVMHEALHNRFTQKSLSLSPGK not shown | 8.05 | 1.32 | 0.0222 | 0.0343 | 86.4 | 80.1 | 17 | 0.0141 | 94.6 | 657 | 0.121 | 184000 | 1.75 | 0.021 | 1.2e+07
BCMB1049 (bispecific antibody, human IgG1, kappa, L234A L235A, Humanized anti-BCMA Fab × stapled anti-CD3 (CD3B219) scFv-Fc, knob-in-hole Fc; also called BCMB1049.001; BCMB749h × CD3B219 spFv) light: DIQMTQSPSSVSASVGDRVTITCKASQNVGTAVAWYQQKPGQSPKLLIYSASNRYTGVPSRFSGSGSGTDFTLTISSLQPEDFATYFCQQYGSSPWTFGGGTKVEIKRTVAAPSVFIFPPSDEQLKSGTASVVCLLNNFYPREAKVQWKVDNALQSGNSQESVTEQDSKDSTYSLSSTLTLSKADYEKHKVYACEVTHQGLSSPVTKSFNRGEC heavy: QVQLVQSGAEVKKPGASVKVSCKASGYTFTNNVMHWVRQAPGQGLEWMGYILPYNDGTKYNQKFQGRVTLTSDKSASTAYMELSSLRSEDTAVYYCARYDYDGYFDYWGQGTTVTVSSASTKGPSVFPLAPSSKSTSGGTAALGCLVKDYFPEPVTVSWNSGALTSGVHTFPAVLQSSGLYSLSSVVTVPSSSLGTQTYICNVNHKPSNTKVDKKVEPKSCDKTHTCPPCPAPEAAGGPSVFLFPPKPKDTLMISRTPEVTCVVVSVSHEDPEVKFNWYVDGVEVHNAKTKPREEQYNSTYRVVSVLTVLHQDWLNGKEYKCKVSNKALPAPIEKTISKAKGQPREPQVYTLPPSREEMTKNQVSLSCAVKGFYPSDIAVEWESNGQPENNYKTTPPVLDSDGSFFLVSKLTVDKSRWQQGNVFSCSVMHEALHNRFTQKSLSLSPGK not shown | 8.58 | 1.65 | 0.0409 | 0.0744 | 86.8 | 77 | 16.5 | ~0.0348 | 92.7 | 23.6 | 0.00205 | 86900 | 1.59 | 0.0219 | 1.38e+07
BCMB1052 (bispecific antibody, human IgG1, kappa, L234A L235A, Murine anti-BCMA Fab × stapled anti-CD3 scFv-Fc, knob-in-hole Fc; also called BCMB1052.001; BCMB749 × Cris7b spFv) light: DIVMTQSQKFMSTTVGDRVSITCKASQNVGTAVAWYQQKPGQSPKLLIYSASNRYTGVPDRFTGTGSGTDFTLTIINVQSEDLADYFCQQYGSSPWTFGGGTKLEIKRTVAAPSVFIFPPSDEQLKSGTASVVCLLNNFYPREAKVQWKVDNALQSGNSQESVTEQDSKDSTYSLSSTLTLSKADYEKHKVYACEVTHQGLSSPVTKSFNRGEC heavy: QVQLQQSGAELVKPGASVKLSCKASGYTFTNNVMHWVRQKPGQGLEWIGYILPYNDGTKYNEKFKGKATLTSDKSSSTAYMELSSLTSEDSAVYYCARYDYDGYFDYWGQGTTLTVSSASTKGPSVFPLAPSSKSTSGGTAALGCLVKDYFPEPVTVSWNSGALTSGVHTFPAVLQSSGLYSLSSVVTVPSSSLGTQTYICNVNHKPSNTKVDKKVEPKSCDKTHTCPPCPAPEAAGGPSVFLFPPKPKDTLMISRTPEVTCVVVSVSHEDPEVKFNWYVDGVEVHNAKTKPREEQYNSTYRVVSVLTVLHQDWLNGKEYKCKVSNKALPAPIEKTISKAKGQPREPQVYTLPPSREEMTKNQVSLSCAVKGFYPSDIAVEWESNGQPENNYKTTPPVLDSDGSFFLVSKLTVDKSRWQQGNVFSCSVMHEALHNRFTQKSLSLSPGK not shown | 8.12 | 0.941 | 0.0627 | 0.117 | 80.9 | 73.5 | 15.4 | 0.0489 | 93.4 | 502 | 0.105 | 210000 | 2.74 | 0.039 | 1.42e+07
BCMB1051 (bispecific antibody, human IgG1, kappa, L234A L235A, Murine anti-BCMA Fab × stapled anti-CD3 (CD3B219) scFv-Fc, knob-in-hole Fc; also called BCMB1051.001; BCMB749 × CD3B219 spfv) light: DIVMTQSQKFMSTTVGDRVSITCKASQNVGTAVAWYQQKPGQSPKLLIYSASNRYTGVPDRFTGTGSGTDFTLTIINVQSEDLADYFCQQYGSSPWTFGGGTKLEIKRTVAAPSVFIFPPSDEQLKSGTASVVCLLNNFYPREAKVQWKVDNALQSGNSQESVTEQDSKDSTYSLSSTLTLSKADYEKHKVYACEVTHQGLSSPVTKSFNRGEC heavy: QVQLQQSGAELVKPGASVKLSCKASGYTFTNNVMHWVRQKPGQGLEWIGYILPYNDGTKYNEKFKGKATLTSDKSSSTAYMELSSLTSEDSAVYYCARYDYDGYFDYWGQGTTLTVSSASTKGPSVFPLAPSSKSTSGGTAALGCLVKDYFPEPVTVSWNSGALTSGVHTFPAVLQSSGLYSLSSVVTVPSSSLGTQTYICNVNHKPSNTKVDKKVEPKSCDKTHTCPPCPAPEAAGGPSVFLFPPKPKDTLMISRTPEVTCVVVSVSHEDPEVKFNWYVDGVEVHNAKTKPREEQYNSTYRVVSVLTVLHQDWLNGKEYKCKVSNKALPAPIEKTISKAKGQPREPQVYTLPPSREEMTKNQVSLSCAVKGFYPSDIAVEWESNGQPENNYKTTPPVLDSDGSFFLVSKLTVDKSRWQQGNVFSCSVMHEALHNRFTQKSLSLSPGK not shown | 8.67 | 1.67 | 0.087 | 0.144 | 84.9 | 74 | 16.7 | 0.0594 | 92.4 | 21.5 | 0.00171 | 79500 | 2.47 | 0.0413 | 1.67e+07
BCMB1056 (bispecific antibody, human IgG1, kappa, L234A L235A, Murine anti-BCMA Fab × anti-CD3 scFv-Fc, knob-in-hole Fc; also called BCMB1056.001; BCMB749 × Cris7b scFv) light: DIVMTQSQKFMSTTVGDRVSITCKASQNVGTAVAWYQQKPGQSPKLLIYSASNRYTGVPDRFTGTGSGTDFTLTIINVQSEDLADYFCQQYGSSPWTFGGGTKLEIKRTVAAPSVFIFPPSDEQLKSGTASVVCLLNNFYPREAKVQWKVDNALQSGNSQESVTEQDSKDSTYSLSSTLTLSKADYEKHKVYACEVTHQGLSSPVTKSFNRGEC heavy: QVQLQQSGAELVKPGASVKLSCKASGYTFTNNVMHWVRQKPGQGLEWIGYILPYNDGTKYNEKFKGKATLTSDKSSSTAYMELSSLTSEDSAVYYCARYDYDGYFDYWGQGTTLTVSSASTKGPSVFPLAPSSKSTSGGTAALGCLVKDYFPEPVTVSWNSGALTSGVHTFPAVLQSSGLYSLSSVVTVPSSSLGTQTYICNVNHKPSNTKVDKKVEPKSCDKTHTCPPCPAPEAAGGPSVFLFPPKPKDTLMISRTPEVTCVVVSVSHEDPEVKFNWYVDGVEVHNAKTKPREEQYNSTYRVVSVLTVLHQDWLNGKEYKCKVSNKALPAPIEKTISKAKGQPREPQVYTLPPSREEMTKNQVSLSCAVKGFYPSDIAVEWESNGQPENNYKTTPPVLDSDGSFFLVSKLTVDKSRWQQGNVFSCSVMHEALHNRFTQKSLSLSPGK not shown | 8.29 | 1.42 | 0.105 | 0.15 | 82.7 | 75.3 | 17.2 | 0.0758 | 92.7 | 951 | 0.237 | 249000 | 2.61 | 0.0389 | 1.49e+07
